Source: the supplement of paper PMC9112550, “Optimization of the antimicrobial peptide Bac7 by deep mutational scanning” (BMC Biology, 2022)

System: Escherichia coli TOP10
Assay: shrunken log2 fold change of peptide-encoding DNA abundance (4.5 h post-induction vs induction); higher = less antimicrobial activity (less host growth inhibition)
Conditions: time post-induction: 4.5 h; library: site-saturation at positions 5, 18, 19, 20
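Note: peptides expressed intracellularly from a pBAD plasmid library in pooled LB shake-flask culture, induced with 0.3% L-arabinose, DNA abundance read by NGS, three biological replicates, DESeq2 with apeglm shrinkage.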

Sequence	shrunken log2 fold change
RRIRKRPPRLPRPRPRPPEPPRP	0.842
RRIRMRPPRLPRPRPRPCQLPRP	-0.00804
RRIRHRPPRLPRPRPRPPPEPRP	0.836
RRIRKRPPRLPRPRPRPVHVPRP	0.0513
RRIRHRPPRLPRPRPRPLVPPRP	-0.0575
RRIRGRPPRLPRPRPRPTPVPRP	1.07
RRIRYRPPRLPRPRPRPWTPPRP	-0.0576
RRIRRRPPRLPRPRPRPSVCPRP	0.0243
RRIRGRPPRLPRPRPRPGQKPRP	0.494
RRIRFRPPRLPRPRPRPPRLPRP	0.399
RRIRWRPPRLPRPRPRPWCHPRP	-0.422
RRIRARPPRLPRPRPRPQKAPRP	0.0481
RRIRARPPRLPRPRPRPVLVPRP	0.0133
RRIRARPPRLPRPRPRPWQLPRP	-0.106
RRIRIRPPRLPRPRPRPPYWPRP	-0.00803
RRIRPRPPRLPRPRPRPQISPRP	-0.221
RRIRHRPPRLPRPRPRPAIVPRP	-0.167
RRIRRRPPRLPRPRPRPCPNPRP	-0.207
RRIRQRPPRLPRPRPRPRLCPRP	0.423
RRIRFRPPRLPRPRPRPGSFPRP	-0.0983
RRIRTRPPRLPRPRPRPQSYPRP	-0.0281
RRIRWRPPRLPRPRPRPFLFPRP	0.095
RRIRCRPPRLPRPRPRPSPFPRP	-0.0566
RRIRMRPPRLPRPRPRPQQQPRP	0.246
RRIRKRPPRLPRPRPRPFRWPRP	0.0626

Sequence	shrunken log2 fold change
RRIRSRPPRLPRPRPRPVYIPRP	-0.124
RRIRCRPPRLPRPRPRPKVVPRP	-0.0915
RRIRFRPPRLPRPRPRPPMCPRP	-0.0102
RRIRGRPPRLPRPRPRPWNFPRP	-0.289
RRIRRRPPRLPRPRPRPVDGPRP	0.576
RRIRHRPPRLPRPRPRPMTRPRP	-0.0247
RRIRFRPPRLPRPRPRPDRYPRP	-0.0446
RRIRIRPPRLPRPRPRPVPAPRP	0.0984
RRIRPRPPRLPRPRPRPMSCPRP	-0.043
RRIRARPPRLPRPRPRPFKVPRP	0.0346
RRIRIRPPRLPRPRPRPADKPRP	-0.194
RRIRRRPPRLPRPRPRPSFSPRP	-0.411
RRIRFRPPRLPRPRPRPVKPPRP	-0.0579
RRIRFRPPRLPRPRPRPEMHPRP	-0.195
RRIRCRPPRLPRPRPRPWGNPRP	-0.256
RRIRKRPPRLPRPRPRPWHEPRP	-0.0363
RRIRFRPPRLPRPRPRPHLIPRP	-0.415
RRIRDRPPRLPRPRPRPSERPRP	0.0188
RRIRWRPPRLPRPRPRPDLGPRP	-0.135
RRIRYRPPRLPRPRPRPEDNPRP	-0.0125
RRIRFRPPRLPRPRPRPGQHPRP	0.176
RRIRFRPPRLPRPRPRPSVPPRP	-0.0911
RRIRDRPPRLPRPRPRPQRNPRP	-0.0378
RRIRIRPPRLPRPRPRPCRSPRP	-0.365
RRIRQRPPRLPRPRPRPEGFPRP	-0.0494

Sequence	shrunken log2 fold change
RRIRERPPRLPRPRPRPLIEPRP	-0.287
RRIRGRPPRLPRPRPRPGITPRP	0.356
RRIRYRPPRLPRPRPRPHSYPRP	-0.188
RRIRWRPPRLPRPRPRPSMSPRP	0.0258
RRIRWRPPRLPRPRPRPQDPPRP	0.0126
RRIRHRPPRLPRPRPRPPNQPRP	-0.0151
RRIRCRPPRLPRPRPRPPTYPRP	-0.133
RRIRRRPPRLPRPRPRPLKVPRP	0.0966
RRIRRRPPRLPRPRPRPACGPRP	0.429
RRIRPRPPRLPRPRPRPYDCPRP	-0.021
RRIRWRPPRLPRPRPRPFQLPRP	-0.316
RRIRNRPPRLPRPRPRPICGPRP	-0.253
RRIRKRPPRLPRPRPRPMPVPRP	-0.00341
RRIRSRPPRLPRPRPRPKVFPRP	-0.063
RRIRHRPPRLPRPRPRPLCRPRP	0.0244
RRIRERPPRLPRPRPRPTNWPRP	0.0202
RRIRARPPRLPRPRPRPEIPPRP	0.3
RRIRWRPPRLPRPRPRPGEIPRP	0.889
RRIRTRPPRLPRPRPRPKPKPRP	0.349
RRIRPRPPRLPRPRPRPEWRPRP	0.362
RRIRMRPPRLPRPRPRPGQHPRP	0.406
RRIRFRPPRLPRPRPRPMVRPRP	0.0406
RRIRIRPPRLPRPRPRPLDDPRP	0.0241
RRIRQRPPRLPRPRPRPWVYPRP	-0.264
RRIRSRPPRLPRPRPRPDPHPRP	-0.151

Sequence	shrunken log2 fold change
RRIRIRPPRLPRPRPRPGWEPRP	0.0557
RRIRKRPPRLPRPRPRPWNGPRP	-0.0782
RRIRPRPPRLPRPRPRPLPVPRP	-0.4
RRIRPRPPRLPRPRPRPTSKPRP	0.188
RRIRARPPRLPRPRPRPIIEPRP	0.00879
RRIRDRPPRLPRPRPRPDVSPRP	-0.00965
RRIRERPPRLPRPRPRPHMYPRP	-0.577
RRIRQRPPRLPRPRPRPTVCPRP	0.0669
RRIRNRPPRLPRPRPRPTHKPRP	0.322
RRIRRRPPRLPRPRPRPTIEPRP	0.212
RRIRQRPPRLPRPRPRPARQPRP	0.182
RRIRVRPPRLPRPRPRPRMTPRP	0.265
RRIRNRPPRLPRPRPRPVNMPRP	0.131
RRIRHRPPRLPRPRPRPAQDPRP	0.0349
RRIRCRPPRLPRPRPRPKEDPRP	0.166
RRIRHRPPRLPRPRPRPWLPPRP	-0.0823
RRIRSRPPRLPRPRPRPVQFPRP	0.11
RRIRERPPRLPRPRPRPCANPRP	-0.158
RRIRDRPPRLPRPRPRPAQYPRP	-0.0825
RRIRQRPPRLPRPRPRPMDVPRP	-0.0102
RRIRPRPPRLPRPRPRPFVTPRP	-0.102
RRIRIRPPRLPRPRPRPIQYPRP	-0.251
RRIRHRPPRLPRPRPRPFTLPRP	-0.312
RRIRDRPPRLPRPRPRPHNEPRP	-0.701
RRIRFRPPRLPRPRPRPGWQPRP	0.188

Sequence	shrunken log2 fold change
RRIRFRPPRLPRPRPRPQRIPRP	-0.695
RRIRGRPPRLPRPRPRPFLPPRP	-0.148
RRIRHRPPRLPRPRPRPQQMPRP	0.00835
RRIRKRPPRLPRPRPRPNMDPRP	-0.0504
RRIRQRPPRLPRPRPRPDEHPRP	2.14
RRIRFRPPRLPRPRPRPNTMPRP	-0.648
RRIRPRPPRLPRPRPRPWRPPRP	0.12
RRIRYRPPRLPRPRPRPYQPPRP	0.0857
RRIRARPPRLPRPRPRPLNGPRP	0.0986
RRIRNRPPRLPRPRPRPTQHPRP	0.0469
RRIRERPPRLPRPRPRPCSEPRP	0.0641
RRIRGRPPRLPRPRPRPLWIPRP	0.163
RRIRIRPPRLPRPRPRPTYDPRP	-1.08
RRIRPRPPRLPRPRPRPNRAPRP	0.371
RRIRMRPPRLPRPRPRPDSMPRP	0.025
RRIRRRPPRLPRPRPRPLPCPRP	-0.0345
RRIRARPPRLPRPRPRPPRVPRP	0.875
RRIRMRPPRLPRPRPRPADWPRP	0.905
RRIRVRPPRLPRPRPRPEMTPRP	0.0232
RRIRIRPPRLPRPRPRPAVVPRP	-0.0892
RRIRWRPPRLPRPRPRPGIVPRP	0.585
RRIRFRPPRLPRPRPRPTDWPRP	0.335
RRIRNRPPRLPRPRPRPYFFPRP	-0.482
RRIRYRPPRLPRPRPRPVDKPRP	-0.00804
RRIRYRPPRLPRPRPRPNQHPRP	-1.18

Sequence	shrunken log2 fold change
RRIRARPPRLPRPRPRPYQRPRP	-0.229
RRIRTRPPRLPRPRPRPLYWPRP	-0.559
RRIRKRPPRLPRPRPRPKQHPRP	0.657
RRIRLRPPRLPRPRPRPKALPRP	-0.224
RRIRERPPRLPRPRPRPTYLPRP	-0.178
RRIRWRPPRLPRPRPRPSMKPRP	-0.199
RRIRHRPPRLPRPRPRPYHSPRP	-0.0215
RRIRFRPPRLPRPRPRPYVDPRP	-0.00112
RRIRMRPPRLPRPRPRPYVVPRP	0.00957
RRIRSRPPRLPRPRPRPTNWPRP	0.0446
RRIRMRPPRLPRPRPRPLVIPRP	-0.13
RRIRTRPPRLPRPRPRPVLDPRP	-0.0579
RRIRLRPPRLPRPRPRPNQIPRP	-0.253
RRIRHRPPRLPRPRPRPFYKPRP	-0.774
RRIRTRPPRLPRPRPRPEGLPRP	0.0624
RRIRYRPPRLPRPRPRPKAQPRP	0.35
RRIRMRPPRLPRPRPRPAAWPRP	0.11
RRIRARPPRLPRPRPRPNEWPRP	0.0144
RRIRLRPPRLPRPRPRPPYAPRP	0.296
RRIRPRPPRLPRPRPRPSKGPRP	0.0318
RRIRVRPPRLPRPRPRPAAQPRP	0.433
RRIRSRPPRLPRPRPRPPKYPRP	-0.164
RRIRSRPPRLPRPRPRPPGTPRP	0.396
RRIRIRPPRLPRPRPRPHPQPRP	-0.0725
RRIRMRPPRLPRPRPRPHNLPRP	-0.0351
